The record followed here is patent US20220298212A1 (Molecular Partners, published 2022).

Experiment [1] has as its target T1, biotinylated human 4-1BB (recombinant Fc fusion protein of the extracellular domain of human 4-1BB) (human, UniProt Q07011 24-186, biotinylated (site not stated)).
T1 construct: Bought from BPS Bioscience; tie to the Fc fusion is by the Materials paragraph; also called h4-1BB; CD137; not shown: Fc part of the purchased fusion (BPS Bioscience)
The experiment is described as follows: SPR (ProteOn), biotinylated human 4-1BB on NLC chip, PBST. As to the method: Briefly, biotinylated human 4-1 BB was diluted in PBST (PBS, pH 7.4 containing 0.005% Tween 20®) and coated on a NLC chip (BioRad) to a level of around 320 resonance units (RU) (600 RU for single trace SPR measurements). The interaction of ankyrin repeat protein and h4-1 BB was then measured by injecting 200 μl running buffer (PBS, pH 7.4 containing 0.005% Tween 20®) containing serial dilutions of ankyrin repeat proteins covering a concentration range between 50 nM and 0.5 nM for multi-trace SPR measurements or 50 nM for single trace measurements (on-rate measurement), followed by a running buffer flow for at least 30 minutes at a constant flow rate of 100 μl/min (off-rate measurement). The regeneration was performed using 30 μl of 10 mM Glycine pH 2 followed by 30 μl of 124 mM H₃PO₄. The signals (i.e. resonance unit (RU) values) of the interspots and a reference injection (i.e. injection of running buffer only) were subtracted from the RU traces obtained after injection of ankyrin repeat protein (double-referencing). Based on the SPR traces obtained from the on-rate and off-rate measurements, the on- and off-rate of the corresponding ankyrin repeat protein—4-1 BB interaction was determined.
Dissociation constants (KD) were calculated from the estimated on- and off-rates using standard procedures known to the person skilled in the art.

The target in experiment [2] is T2, cell membrane-bound human 4-1BB (endogenous, on ionomycin/PMA stimulated CCRF-CEM cells or primary CD8+ T … (human, UniProt Q07011 24-255)).
T2 construct: also called cell membrane-expressed human 4-1 BB; 4-1BB on CEM cells
Briefly: flow cytometry on PMA/ionomycin stimulated CEM cells, anti-penta-His Alexa Fluor-488 detection. The protocol: Assay setup: Ankyrin repeat protein binding to cell membrane-bound human 4-1 BB on cells was measured by flow cytometry using the T lymphoblast cell line CCRF-CEM (ATCC® CCL-119™) stimulated with ionomcycin/PMA (phorbol 12-myristate 13-acetate) to express 4-1 BB. CEM cells cultured in RPMI medium supplemented with 10% (v/v) FBS+1% PenStrep were harvested and stimulated overnight in 96-well U-bottom plates using the same medium plus PMA (10 ng/ml) and ionomycin (500 ng/ml). […] Stimulated CEM cells were harvested, then 30,000 cells were incubated with increasing concentrations of His-tagged ankyrin repeat proteins in FACS buffer (PBS+2% (v/v) FBS+0.1% sodium azide) for 30 minutes on ice. […] After washing with PBS, cells were stained with Live/Dead Aqua dye (Thermo Fisher, No. L34957) and analyzed using a BD FACS Canto II or AttuneNxT cytometer.
The multivalent ankyrin repeat proteins were tested, together with binding proteins comprising only one corresponding 4-1 BB-specific ankyrin repeat domain (with our without a linked localizer), for binding to PMA/ionomycin stimulated CEM cells.

Experiment [3] deals with T1, biotinylated human 4-1BB (recombinant …). Briefly: SPR; accurate fit not possible due to slow off-rate. On the technique in general: In SPR one partner is held on a chip, and binding of the other changes the refractive index at the surface.

For orientation: Kd means the free concentration of one partner at which half of the binding sites on the other are occupied at equilibrium, for simple one-to-one binding. As a reminder, the EC50 (read off the curve) is the concentration at which the effect is half-maximal. A lower EC50 (read off the curve) goes with higher potency in that assay.

T2 sequence (Q07011 24-255 limits assumed): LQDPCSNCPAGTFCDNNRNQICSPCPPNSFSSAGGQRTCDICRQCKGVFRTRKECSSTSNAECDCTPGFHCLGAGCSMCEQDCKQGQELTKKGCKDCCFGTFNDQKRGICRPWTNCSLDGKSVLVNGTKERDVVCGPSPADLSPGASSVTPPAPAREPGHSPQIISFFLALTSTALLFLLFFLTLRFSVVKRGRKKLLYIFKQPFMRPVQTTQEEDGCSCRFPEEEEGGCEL

B1: DARPin® protein #19 (designed binder)
chain: MRGSHHHHHHGSDLGKKLLEAARAGQDDEVRELLKAGADVNAKDTHGWTPLHVAALEGHLEIVEVLLKAGAYVNAKDEWGQTPLHVAAWRGHLEIVEVLLKAGADVNAKDRYGWTPLHIAAWLGHLEIAEVLLKAGADVNAQDKSGKTPADLAADAGQEDIVEVLQKLN
Take B1: the Kd in experiment [1] is 1.6 nM.

B2: DARPin® protein #17 (designed binder)
chain: MRGSHHHHHHGSDLGEKLLYAAYYGQDDEVRILLAAGADVNAKDHVGLTPLHYAAAIGHLEIVEVLLKAGADVNAKDHYGYTPLHYAAYKGHLEIVEVLLKAGADVNAQDSAGHTPADLAAHHGHEDIAEVLQKLN
Consider B2, for which the Kd in experiment [1] turned out to be 0.5 nM.

B3: DARPin® protein #13 (designed binder)
chain: MRGSHHHHHHGSDLGLKLLYAAAEGQDDEVRILLAAGADVNAKDTRGQTPLHYAAWFGHLEIVEVLLKAGADVNAKDWSGDTPLHVAAWRGHLEIVEVLLKAGADVNAQDNSGNTPADLAAWIGHEDIAEVLQKLN
On to B3, for which, in experiment [1], the Kd stood at 0.69 nM.

B4: DARPin® protein #18 (designed binder)
chain: MRGSHHHHHHGSDLGYKLLYAAAYGQDDEVRILLAAGADVNAKDQYGETPLHHAASHGHLEIVEVLLKAGADVNAKDTLGDTPLHLAAVVGHLEIVEVLLKAGADVNAQDTEGKTPADLAAYTGHEDIAEVLQKLN
In the case of B4, in experiment [1], the dissociation constant Kd was found to be 1.47 nM.

B5: DARPin® protein #26 (designed binder)
chain: MRGSHHHHHHGSDLGKKLLEAARAGQDDEVRELLKAGADVNAKDHAGQTPLHIAALRGHLEIVEVLLKAGADVNAKDKYGQTPLHLAAILGHLEIVEVLLKAGADVNAKDQEGDTPLHIAAWQGHLEIVEVLLKAGADVNAQDKSGKTPADLAADAGHEDITEVLQKLN
Consider B5, for which, in experiment [1], the dissociation constant Kd came out at 0.83 nM.

B6: DARPin® protein #21 (designed binder)
chain: MRGSHHHHHHGSDLGEKLLTAAYYGQDDEVRILLAAGADVNAKDKQGLTPLHYAAAVGHLEIVEVLLKAGTDVNAKDFYGETPLHLAASRGHLEIVEVLLKAGADVNAQDKSGKTPADLAADAGHEDIAEVLQKAA
Turning to B6, the Kd in experiment [1] was 0.16 nM.

B7: DARPin® protein #24 (designed binder)
chain: MRGSHHHHHHGSDLGEKLLNAAYYGQDDEVRILLAAGADVNAKDVKGETPLHYAAAVGHLEIVEVLLKAGADVNAKDQYGATPLHLAAYKGHLEIVEVLLKAGADVNAQDKSGKTPADLAADAGHEDIAEVLQKAA
Turning to B7, the equilibrium dissociation constant (Kd) in experiment [1] worked out at 0.29 nM.

B8: DARPin® protein #20 (designed binder)
chain: MRGSHHHHHHGSDLGEKLLHAAYYGQDDEVRILLAAGADVNAKDDQGLTPLHLAAAIGHLEIVEVLLKAGADVNAKDAYGETPLHLAARRGHLEIVEVLLKAGADVNAQDKSGKTPADLAADAGHEDIAEVLQKAA
B8: in experiment [1], the dissociation constant Kd is 0.48 nM.

B9: DARPin® protein #52 (designed binder)
chain: GSDLGDKLLHAAYYGQDDEVRILLAAGADVNAKDTQGLTPLHLAAAIGHLEIVEVLLKAGADVNAKDAYGETPLHLVASRGHLEIVEVLLKAGADVNAQDYSGRTPADLAAEYGHEDIAEVLQKLNGSPTPTPTTPTPTPTTPTPTPTGSDLGDKLLHAAYYGQDDEVRILLAAGADVNAKDTQGLTPLHLAAAIGHLEIVEVLLKAGADVNAKDAYGETPLHLVASRGHLEIVEVLLKAGADVNAQDYSGRTPADLAAEYGHEDIAEVLQKLN
notes: not shown: TAA-specific ankyrin repeat domain (localizer)
Take B9: the half-maximal effective concentration (EC50 (read off the curve)) in experiment [2] is about 8 nM.

B10: DARPin® protein #22 (designed binder)
chain: MRGSHHHHHHGSDLGEKLLWAAWEGQGDEVRILLAAGADVNAKDLTGRTPLHFAAHSGHLEIVEVLLKAGADVNAKDNAGRTPLHLAAELGHLEIVEVLLKAGADVNAQDKSGKTPADLAADAGHEDIAEVLQKAA
Regarding B10, in experiment [1], the Kd was 0.13 nM.

B11: DARPin® protein #23 (designed binder)
chain: MRGSHHHHHHGSDLGEKLLWAAYLGQDDEVRILLAAGADVNAKDATGRTPLHFAAHSGHLEIVEVLLKAGADVNAKDNAGRTPLHLAAELGHLEIVEVLLKAGADVNAQDKSGKTPADLAADAGHEDIAEVLQKAA
Regarding B11, the Kd in experiment [1] is 0.6 nM.

B12: DARPin® protein #55 (designed binder)
chain: GSDLGDKLLHAAYYGQDDEVRILLAAGADVNAKDTQGLTPLHLAAAIGHLEIVEVLLKAGADVNAKDAYGETPLHLVASRGHLEIVEVLLKAGADVNAQDYSGRTPADLAAEYGHEDIAEVLQKLNGSPTPTPTTPTPTPTTPTPTPTGSDLGDKLLHAAYYGQDDEVRILLAAGADVNAKDTQGLTPLHLAAAIGHLEIVEVLLKAGADVNAKDAYGETPLHLVASRGHLEIVEVLLKAGADVNAQDYSGRTPADLAAEYGHEDIAEVLQKLNGSPTPTPTTPTPTPTTPTPTPTGSDLGDKLLHAAYYGQDDEVRILLAAGADVNAKDTQGLTPLHLAAAIGHLEIVEVLLKAGADVNAKDAYGETPLHLVASRGHLEIVEVLLKAGADVNAQDYSGRTPADLAAEYGHEDIAEVLQKLN
notes: as for B9
On to B12, for which the concentration giving a half-maximal response (EC50 (read off the curve)) in experiment [2] is about 7 nM.

B13: DARPin® protein #16 (designed binder)
chain: MRGSHHHHHHGSDLGAKLLNAAFFGQDDEVRILLAAGADVNAKDDYGHTPLHWAAVTGHLEIVEVLLKAGADVNAKDWLGETPLHHAAYEGHLEIVEVLLKAGADVNAQDEQGETPADLAAYEGHEDIAEVLLKAGADVNAQDDKGFTPADLAAIVGHEDIAEVLQKLN
B13: the Kd in experiment [1] was found to be 1.6 nM.

B14: DARPin® protein #11 (designed binder)
chain: MRGSHHHHHHGSDLGWKLLSAAWQGQDDEVRILLAAGADVNAKDTFGTTPLHWAAHAGHLEIVEVLLKAGADVNAKDQWGTTPLHYAAYYGHLEIVEVLLKAGADVNAQDDKGFTPADLAAIVGHEDIAEVLQKLN
As to B14, the Kd in experiment [1] was found to be 0.38 nM.

B15: DARPin® protein #15 (designed binder)
chain: MRGSHHHHHHGSDLGQKLLYAAYYGQDDEVRILLAAGADVNAKDFFGTTPLHWAAHAGHLEIVEVLLKAGADVNAKDQWGTTPLHYAAYQGHLEIVEVLLKAGADVNAQDTTGATPADLAAQAGHEDIAEVLQKLN
Turning to B15, the Kd in experiment [1] stood at 5 nM.

B16: DARPin® protein #12 (designed binder)
chain: MRGSHHHHHHGSDLGQKLLHTAYDGQDDEVRILLAAGADVNAKDFFGTTPLHWAAHAGHLEIVEVLLKAGADVNAKDQWGTTPLHYAAYYGHLEIVEVLLKAGADVNAQDDKGFTPADLAAIVGHEDIAEVLQKLN
B16: the Kd in experiment [1] stood at 0.74 nM.

B17: DARPin® protein #51 (designed binder)
chain: GSDLGQKLLKAAQEGQDDEVRELLKAGADVNAKDLRGITPLHVAAWQGHLEIVEVLLKAGADVNAKDSKGETPLHLAAFRGHLEIVEVLLKAGADVNAQDQQGETPADLAALAGHVDIAEVLQKLNGSPTPTPTTPTPTPTTPTPTPTGSDLGQKLLKAAQEGQDDEVRELLKAGADVNAKDLRGITPLHVAAWQGHLEIVEVLLKAGADVNAKDSKGETPLHLAAFRGHLEIVEVLLKAGADVNAQDQQGETPADLAALAGHVDIAEVLQKLN
notes: as for B9
Regarding B17, the dissociation constant Kd in experiment [3] is under 0.02 nM.

B18: DARPin® protein #27 (designed binder)
chain: MRGSHHHHHHGSDLGKKLLEAARAGQDDEVRELLKAGADVNAKDHQGATPLHNAAWAGHLEIVEVLLKAGADVNAKDKAGYTPLHIAAITGHLEIVEVLLKAGADVNAKDQWGKTPLHLAAQVGHLEIVEVLLKAGADVNAQDKSGKTPADLAADAGHEDIAKVLQKLN
Regarding B18, the equilibrium dissociation constant (Kd) in experiment [1] was determined as 3.96 nM.
